Here are results for six molecules from paper PMC3288073, “Aptamers as a Sensitive Tool to Detect Subtle Modifications in Therapeutic Proteins”.

B1: Aptamer 30-14 (structured_DNA)
DNA: AGATGCCTGTCGAGCATGCTGTTGTGGTAGGGTTAGGGATGGTAGCGGTTGTAGCTAAACTGCTTTGTCGACGG
B2: Aptamer 30-8 (structured_DNA)
DNA: AGATGCCTGTCGAGCATGCTGTGAATAGGTAGGGTCGGATGGGCTACGGTGTAGCTAAACTGCTTTGTCGACGGG

The first series addresses thrombin (Thrombin JMI), bovine plasma (Bos taurus, UniProt P00735;P00735 318-366;367-625). Nature of the series: ELISA; 1 mM Mg2+; ELISA: 25 mM Tris, 10 mM NaCl, 1 mM MgCl2, pH 7.4, RT, 1 h; aptamers heated 95 C 10 min and refolded at RT 20 min; Kd unit (nM) from Results text. BLI: Octet RE. Conditions: protein: native; copies: 1;1.
Turning to CAGTCCGTGGTAGGGCAGGTTGGGGTGACTTCGTGGAA (structured_DNA) [Aptamer 60-18/38], the binding result is “no binding”.
Take B1: the binding result is recorded as “no binding”.
Take B2: the binding result is “no binding”.
Same read-out and setting: the same measure for ACCCGTGGTAGGGTAGGATGGGGTGGT (structured_DNA) [Aptamer 30-38/27]: “no binding”; for TACCGTGGTAGGGAAGGTTGGAGTGTA (structured_DNA) [Aptamer 30-16/27]: “no binding”.

The target of the next series is thrombin (Recothrom), recombinant human (Homo sapiens, UniProt P00734;P00734 315-363;364-622). Nature of the series: ELISA (apparent Kd); 1 mM Mg2+; ELISA: 25 mM Tris, 10 mM NaCl, 1 mM MgCl2, pH 7.4, RT, 1 h; aptamers heated 95 C 10 min and refolded at RT 20 min; Kd unit (nM) from Results text. BLI: Octet RE.
Details: not given
Background: ELISA stands for enzyme-linked immunosorbent assay.
Regarding CAGTCCGTGGTAGGGCAGGTTGGGGTGACTTCGTGGAA (structured_DNA) [Aptamer 60-18/38], the Kd came to 1.48 nM.
As to B1, the Kd came to 2.75 nM.
On the same count and under the same terms, the same measure for B2: 0.58 nM; for GGTTGGTGTGGTTGG (structured_DNA) [Aptamer G15D]: 1.48 nM; for ACCCGTGGTAGGGTAGGATGGGGTGGT (structured_DNA) [Aptamer 30-38/27]: 1.28 nM.
Still for that read-out and setting: next, TACCGTGGTAGGGAAGGTTGGAGTGTA (structured_DNA) [Aptamer 30-16/27]: 1.54 nM.
